According to publication PMC12209146:
Values joined by “and” are separate entries in the source; they are usually repeats but may differ in a detail not shown here. Identical values can stand only once.

Biological target: toxin B (TcdB) from Clostridioides difficile VPI 10,463 (Clostridioides difficile VPI 10,463) (UniProt P18177)
Sequence (P18177 whole entry): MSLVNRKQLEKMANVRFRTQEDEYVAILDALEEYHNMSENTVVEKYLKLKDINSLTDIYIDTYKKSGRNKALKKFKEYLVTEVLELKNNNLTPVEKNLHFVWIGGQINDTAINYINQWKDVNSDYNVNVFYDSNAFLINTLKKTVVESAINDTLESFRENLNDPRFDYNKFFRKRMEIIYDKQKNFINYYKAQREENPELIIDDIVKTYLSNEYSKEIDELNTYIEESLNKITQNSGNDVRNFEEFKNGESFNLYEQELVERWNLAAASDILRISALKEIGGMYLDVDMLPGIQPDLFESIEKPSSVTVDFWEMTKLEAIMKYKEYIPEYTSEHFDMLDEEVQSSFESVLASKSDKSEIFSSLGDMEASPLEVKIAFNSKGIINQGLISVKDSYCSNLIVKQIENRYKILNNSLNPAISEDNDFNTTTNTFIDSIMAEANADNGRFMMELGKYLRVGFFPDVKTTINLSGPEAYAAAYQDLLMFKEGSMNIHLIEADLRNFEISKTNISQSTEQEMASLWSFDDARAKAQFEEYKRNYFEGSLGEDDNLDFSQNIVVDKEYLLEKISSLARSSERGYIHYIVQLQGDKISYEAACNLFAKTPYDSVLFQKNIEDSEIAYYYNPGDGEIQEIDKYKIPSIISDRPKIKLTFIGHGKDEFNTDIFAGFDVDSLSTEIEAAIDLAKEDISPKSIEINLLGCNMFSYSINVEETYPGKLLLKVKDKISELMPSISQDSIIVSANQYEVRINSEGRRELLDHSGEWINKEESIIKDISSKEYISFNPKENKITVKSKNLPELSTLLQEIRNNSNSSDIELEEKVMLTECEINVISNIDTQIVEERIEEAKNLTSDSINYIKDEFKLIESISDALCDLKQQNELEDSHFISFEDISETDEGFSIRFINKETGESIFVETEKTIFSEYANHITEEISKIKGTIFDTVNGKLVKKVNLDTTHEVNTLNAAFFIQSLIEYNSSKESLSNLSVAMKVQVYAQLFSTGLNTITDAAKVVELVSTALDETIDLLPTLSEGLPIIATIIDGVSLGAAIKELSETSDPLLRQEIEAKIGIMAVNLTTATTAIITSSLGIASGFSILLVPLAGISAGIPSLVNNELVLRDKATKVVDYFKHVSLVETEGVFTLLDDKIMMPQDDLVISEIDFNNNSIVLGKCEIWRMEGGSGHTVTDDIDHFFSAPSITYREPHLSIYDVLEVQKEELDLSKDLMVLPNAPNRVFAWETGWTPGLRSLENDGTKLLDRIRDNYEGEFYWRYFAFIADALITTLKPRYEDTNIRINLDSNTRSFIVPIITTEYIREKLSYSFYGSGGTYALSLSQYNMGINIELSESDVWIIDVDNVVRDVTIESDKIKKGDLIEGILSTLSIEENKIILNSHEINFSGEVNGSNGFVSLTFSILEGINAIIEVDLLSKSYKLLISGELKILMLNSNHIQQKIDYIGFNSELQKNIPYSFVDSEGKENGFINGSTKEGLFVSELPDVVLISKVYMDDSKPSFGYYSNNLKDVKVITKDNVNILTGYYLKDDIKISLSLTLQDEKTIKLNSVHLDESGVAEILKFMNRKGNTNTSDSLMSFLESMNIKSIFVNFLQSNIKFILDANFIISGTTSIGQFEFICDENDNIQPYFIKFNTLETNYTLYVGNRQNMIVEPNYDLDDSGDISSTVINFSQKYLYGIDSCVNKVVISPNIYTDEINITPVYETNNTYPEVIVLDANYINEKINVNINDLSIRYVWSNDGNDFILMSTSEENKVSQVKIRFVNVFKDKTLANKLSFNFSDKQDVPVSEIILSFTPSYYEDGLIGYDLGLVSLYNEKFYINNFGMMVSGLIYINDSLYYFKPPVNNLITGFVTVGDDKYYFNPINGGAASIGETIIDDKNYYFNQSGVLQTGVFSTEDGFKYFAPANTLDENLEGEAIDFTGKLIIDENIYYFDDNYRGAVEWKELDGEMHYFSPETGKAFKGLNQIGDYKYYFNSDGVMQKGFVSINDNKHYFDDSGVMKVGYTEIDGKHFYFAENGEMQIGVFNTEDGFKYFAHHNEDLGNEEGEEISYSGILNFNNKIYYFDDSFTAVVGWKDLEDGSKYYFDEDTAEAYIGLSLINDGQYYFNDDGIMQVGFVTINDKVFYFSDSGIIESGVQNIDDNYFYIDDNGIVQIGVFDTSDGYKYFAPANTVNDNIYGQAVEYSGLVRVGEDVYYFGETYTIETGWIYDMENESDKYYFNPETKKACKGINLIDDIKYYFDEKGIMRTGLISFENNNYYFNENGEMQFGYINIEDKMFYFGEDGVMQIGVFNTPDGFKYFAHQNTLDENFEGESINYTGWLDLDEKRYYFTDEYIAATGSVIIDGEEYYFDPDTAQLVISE

In the case of KFINIFIHGNKRSIKAI [Angie 5], the other is reported as 40.9 µM and 46.3 µM.
